Each block holds one binder with its values, some of them ahead of it.
Legend:
SMARCA4 [1] = target: T1, SMARCA4 (human, UniProt P51532 1-1647, limits assumed); experiment: inter-protein BS3 crosslinks (CX-MS), HA-BRD7-purified PBAF complexes from HEK-293T
T1 construct: Endogenous PBAF subunit; numbering on the printed UniProt entry; also called BRG1; BAF190

[2] = target: T2, SMARCA4 (SWI/SNF related, matrix associated, actin dependent regulator of chromatin, subfamily a, member 4) (human, UniProt P51532 1-1647, limits assumed); experiment: inter-protein BS3 crosslink, CX-MS of HA-PHF10-purified PBAF complexes from HEK-293T cells
T2 construct: Endogenous subunit co-purified in native PBAF complex; The crosslink positions count on P51532; also called BRG1; BAF190

SMARCE1 = target: T3, SMARCE1 (human, UniProt Q969G3 1-411); experiment: HA affinity purification from HEK-293T nuclear extract, glycerol gradient fraction 15, mass spectrometry (co-purification in the complex)
T3 construct: also called BAF57; Q969G3_SMCE1
T3 sequence (Q969G3 whole entry): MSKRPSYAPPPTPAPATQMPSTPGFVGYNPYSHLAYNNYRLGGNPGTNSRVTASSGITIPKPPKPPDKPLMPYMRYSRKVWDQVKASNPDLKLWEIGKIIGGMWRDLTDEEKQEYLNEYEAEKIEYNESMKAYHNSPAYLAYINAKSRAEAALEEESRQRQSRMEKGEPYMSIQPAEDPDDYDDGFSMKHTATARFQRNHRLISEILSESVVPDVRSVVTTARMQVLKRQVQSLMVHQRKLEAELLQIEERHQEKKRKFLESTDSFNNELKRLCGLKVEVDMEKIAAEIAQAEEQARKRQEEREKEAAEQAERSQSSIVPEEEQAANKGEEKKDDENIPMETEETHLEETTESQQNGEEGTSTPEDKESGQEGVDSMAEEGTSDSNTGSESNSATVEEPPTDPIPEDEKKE

ARID1A = target: T4, ARID1A (human, UniProt O14497 2-2285); experiment: as above
T4 construct: also called BAF250A; O14497_ARI1A

[3] = target: T5, A0A0A0MT49 (gene symbol printed cut off as 'SMA', about 188 kDa) (human); experiment: as above
T5 construct: Separate database entry of the search; gene symbol cut off in print

[4] = target: T6, G5E975 (gene symbol printed cut off as 'SMA', 45.0 kDa) (human); experiment: as above
T6 construct: Separate database entry of the search; gene symbol cut off in print

SS18 = target: T7, SS18 (human, UniProt Q15532 2-418, limits assumed); experiment: as above
T7 construct: also called Q15532_SSXT
T7 sequence (Q15532 2-418 limits assumed): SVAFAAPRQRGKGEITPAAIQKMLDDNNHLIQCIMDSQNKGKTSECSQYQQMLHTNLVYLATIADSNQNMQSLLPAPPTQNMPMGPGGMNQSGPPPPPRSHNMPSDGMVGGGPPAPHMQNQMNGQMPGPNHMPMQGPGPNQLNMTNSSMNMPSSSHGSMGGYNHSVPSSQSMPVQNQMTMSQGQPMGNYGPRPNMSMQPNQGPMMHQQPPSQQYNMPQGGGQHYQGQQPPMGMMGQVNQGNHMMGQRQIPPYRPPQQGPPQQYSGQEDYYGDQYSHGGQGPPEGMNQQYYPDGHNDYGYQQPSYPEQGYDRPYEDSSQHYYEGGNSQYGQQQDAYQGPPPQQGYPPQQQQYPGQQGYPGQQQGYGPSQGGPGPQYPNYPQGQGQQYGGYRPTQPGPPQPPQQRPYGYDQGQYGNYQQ

[5] = target: T8, H0Y3S9 (gene symbol printed cut off as 'ARID', 29.4 kDa) (human); experiment: as above
T8 construct: Which ARID gene is meant cannot be told from the print

[6] = target: T9, DPF3, entry F8W7T1 (46.4 kDa) (human); experiment: as above
T9 construct: Separate database entry of DPF3; also called F8W7T1_F8W7
T9 sequence (Q92784 whole entry): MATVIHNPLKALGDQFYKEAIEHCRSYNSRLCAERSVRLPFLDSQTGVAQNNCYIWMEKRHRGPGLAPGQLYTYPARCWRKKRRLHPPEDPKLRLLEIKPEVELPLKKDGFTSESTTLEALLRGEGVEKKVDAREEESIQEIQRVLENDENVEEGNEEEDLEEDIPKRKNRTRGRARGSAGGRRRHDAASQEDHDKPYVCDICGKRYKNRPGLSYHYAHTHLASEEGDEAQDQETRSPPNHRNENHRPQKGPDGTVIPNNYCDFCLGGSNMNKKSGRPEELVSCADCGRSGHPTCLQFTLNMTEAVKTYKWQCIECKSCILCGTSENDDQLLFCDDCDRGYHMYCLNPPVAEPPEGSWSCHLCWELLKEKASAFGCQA

SMARCC1 = target: T10, SMARCC1 (human, UniProt Q92922 2-1105); experiment: as above
T10 construct: also called BAF155; Q92922_SMRC1

[7] = target: T11, DPF1, entry C8C3P2 (45.0 kDa) (human); experiment: as above
T11 construct: Separate database entry of DPF1; also called C8C3P2_C8C3

[8] = target: T12, PBRM1, entry C9J053 (13.6 kDa) (human); experiment: as above
T12 construct: Separate fragment entry; gene symbol cut off in print; also called C9J053_C9J053

ARID1B = target: T13, ARID1B (human, UniProt Q8NFD5 84-2319, limits assumed); experiment: as above
T13 construct: also called BAF250B; Q8NFD5_ARI1B
T13 sequence (Q8NFD5 84-2319 limits assumed, form in doubt): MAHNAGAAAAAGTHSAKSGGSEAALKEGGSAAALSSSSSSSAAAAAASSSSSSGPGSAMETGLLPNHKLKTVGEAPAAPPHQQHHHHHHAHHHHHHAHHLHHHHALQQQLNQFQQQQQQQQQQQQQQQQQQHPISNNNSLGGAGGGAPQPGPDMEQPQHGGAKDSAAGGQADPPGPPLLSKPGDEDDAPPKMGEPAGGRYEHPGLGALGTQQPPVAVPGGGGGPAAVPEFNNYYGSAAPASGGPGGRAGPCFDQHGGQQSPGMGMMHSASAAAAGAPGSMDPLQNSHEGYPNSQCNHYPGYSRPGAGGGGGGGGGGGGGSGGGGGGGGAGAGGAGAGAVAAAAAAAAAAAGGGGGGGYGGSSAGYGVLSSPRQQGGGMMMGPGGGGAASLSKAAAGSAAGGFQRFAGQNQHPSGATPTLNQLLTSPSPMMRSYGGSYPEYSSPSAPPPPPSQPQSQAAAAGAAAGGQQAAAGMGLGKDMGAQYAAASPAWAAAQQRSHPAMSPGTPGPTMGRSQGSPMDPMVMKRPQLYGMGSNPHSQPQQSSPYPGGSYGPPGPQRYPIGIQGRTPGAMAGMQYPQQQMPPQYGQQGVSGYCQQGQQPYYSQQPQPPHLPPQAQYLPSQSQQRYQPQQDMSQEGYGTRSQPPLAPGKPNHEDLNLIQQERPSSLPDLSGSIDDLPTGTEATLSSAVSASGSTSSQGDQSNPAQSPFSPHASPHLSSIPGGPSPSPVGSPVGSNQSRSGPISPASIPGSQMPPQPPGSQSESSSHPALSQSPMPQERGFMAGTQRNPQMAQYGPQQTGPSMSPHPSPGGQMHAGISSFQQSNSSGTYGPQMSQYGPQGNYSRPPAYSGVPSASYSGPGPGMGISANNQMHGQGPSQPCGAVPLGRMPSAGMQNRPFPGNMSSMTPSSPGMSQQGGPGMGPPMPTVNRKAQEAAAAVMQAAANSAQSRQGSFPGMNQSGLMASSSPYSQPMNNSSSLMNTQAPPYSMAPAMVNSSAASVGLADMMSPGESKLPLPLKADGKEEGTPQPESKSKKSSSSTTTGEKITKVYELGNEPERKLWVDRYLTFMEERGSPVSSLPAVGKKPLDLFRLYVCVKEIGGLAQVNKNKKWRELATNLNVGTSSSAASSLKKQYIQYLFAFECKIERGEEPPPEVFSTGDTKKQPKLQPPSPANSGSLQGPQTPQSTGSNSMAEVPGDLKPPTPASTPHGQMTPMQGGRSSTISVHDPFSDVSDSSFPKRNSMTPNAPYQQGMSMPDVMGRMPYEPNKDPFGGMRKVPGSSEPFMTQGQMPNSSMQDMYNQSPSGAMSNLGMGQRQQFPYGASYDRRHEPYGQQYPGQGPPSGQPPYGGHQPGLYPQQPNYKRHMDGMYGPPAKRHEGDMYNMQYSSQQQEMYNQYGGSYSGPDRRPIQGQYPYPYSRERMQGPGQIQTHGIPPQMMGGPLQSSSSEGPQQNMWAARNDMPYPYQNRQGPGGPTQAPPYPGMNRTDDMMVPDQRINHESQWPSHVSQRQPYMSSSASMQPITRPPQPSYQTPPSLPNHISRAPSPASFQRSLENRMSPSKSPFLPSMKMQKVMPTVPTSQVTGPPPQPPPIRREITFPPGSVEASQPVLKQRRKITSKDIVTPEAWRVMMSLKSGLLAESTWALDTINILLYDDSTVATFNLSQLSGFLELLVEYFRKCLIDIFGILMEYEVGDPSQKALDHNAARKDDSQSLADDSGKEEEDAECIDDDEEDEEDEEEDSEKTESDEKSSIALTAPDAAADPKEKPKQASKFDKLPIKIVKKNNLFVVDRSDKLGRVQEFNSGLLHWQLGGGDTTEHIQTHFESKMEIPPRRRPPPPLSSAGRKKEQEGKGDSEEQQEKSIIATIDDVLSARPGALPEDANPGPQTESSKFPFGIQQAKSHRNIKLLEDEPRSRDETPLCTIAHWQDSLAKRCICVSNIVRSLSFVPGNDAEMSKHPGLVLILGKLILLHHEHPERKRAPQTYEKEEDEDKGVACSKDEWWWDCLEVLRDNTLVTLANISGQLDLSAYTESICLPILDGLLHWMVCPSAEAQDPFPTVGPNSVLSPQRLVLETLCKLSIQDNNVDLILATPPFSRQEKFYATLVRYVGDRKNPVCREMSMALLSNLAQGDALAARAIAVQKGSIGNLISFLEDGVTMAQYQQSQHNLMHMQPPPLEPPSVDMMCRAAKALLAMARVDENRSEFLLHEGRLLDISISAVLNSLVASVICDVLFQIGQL

SMARCA2 = target: T14, SMARCA2 (human, UniProt P51531 1-1590, limits assumed); experiment: as above
T14 construct: also called BRM; BAF190
T14 sequence (P51531 whole entry): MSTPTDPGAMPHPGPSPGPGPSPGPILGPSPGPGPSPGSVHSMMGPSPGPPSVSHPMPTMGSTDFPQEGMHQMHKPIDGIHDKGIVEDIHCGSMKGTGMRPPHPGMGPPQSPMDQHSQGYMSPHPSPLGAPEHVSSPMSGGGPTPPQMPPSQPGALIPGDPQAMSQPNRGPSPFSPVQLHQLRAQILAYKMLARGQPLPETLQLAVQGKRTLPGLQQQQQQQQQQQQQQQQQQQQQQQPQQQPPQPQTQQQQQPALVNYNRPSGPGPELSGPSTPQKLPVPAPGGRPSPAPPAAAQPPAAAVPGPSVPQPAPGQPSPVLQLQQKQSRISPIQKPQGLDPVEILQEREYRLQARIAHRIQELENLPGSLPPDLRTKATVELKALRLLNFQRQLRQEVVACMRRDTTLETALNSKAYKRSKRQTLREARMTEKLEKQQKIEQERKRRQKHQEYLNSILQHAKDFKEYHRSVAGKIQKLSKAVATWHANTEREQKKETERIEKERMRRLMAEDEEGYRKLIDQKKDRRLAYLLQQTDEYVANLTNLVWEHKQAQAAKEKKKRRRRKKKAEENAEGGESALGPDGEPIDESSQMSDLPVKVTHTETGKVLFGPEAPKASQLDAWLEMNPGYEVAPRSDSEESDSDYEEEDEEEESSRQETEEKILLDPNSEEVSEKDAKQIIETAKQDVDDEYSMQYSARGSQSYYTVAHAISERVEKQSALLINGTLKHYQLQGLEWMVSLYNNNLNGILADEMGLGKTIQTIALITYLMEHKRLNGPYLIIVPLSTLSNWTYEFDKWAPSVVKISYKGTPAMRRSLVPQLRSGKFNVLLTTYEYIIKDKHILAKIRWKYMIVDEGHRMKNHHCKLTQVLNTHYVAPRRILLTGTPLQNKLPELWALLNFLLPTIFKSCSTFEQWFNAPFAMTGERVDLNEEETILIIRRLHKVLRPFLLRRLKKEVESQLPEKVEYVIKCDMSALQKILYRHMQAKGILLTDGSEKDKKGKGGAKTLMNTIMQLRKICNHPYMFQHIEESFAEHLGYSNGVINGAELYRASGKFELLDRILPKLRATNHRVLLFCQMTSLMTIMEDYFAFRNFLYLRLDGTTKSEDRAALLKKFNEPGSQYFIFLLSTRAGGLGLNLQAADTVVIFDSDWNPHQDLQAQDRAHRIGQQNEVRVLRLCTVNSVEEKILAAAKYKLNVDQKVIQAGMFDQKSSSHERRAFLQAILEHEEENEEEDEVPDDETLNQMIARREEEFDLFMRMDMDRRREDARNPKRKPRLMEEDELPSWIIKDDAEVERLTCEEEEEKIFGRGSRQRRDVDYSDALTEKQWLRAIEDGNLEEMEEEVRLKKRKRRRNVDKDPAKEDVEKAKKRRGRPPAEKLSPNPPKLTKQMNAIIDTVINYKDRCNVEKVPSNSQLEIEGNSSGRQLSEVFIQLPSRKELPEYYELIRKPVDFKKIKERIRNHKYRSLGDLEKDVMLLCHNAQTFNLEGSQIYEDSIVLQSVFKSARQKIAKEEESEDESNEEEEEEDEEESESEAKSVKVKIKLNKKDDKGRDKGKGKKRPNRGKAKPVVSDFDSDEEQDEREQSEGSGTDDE

SMARCC2 = target: T15, SMARCC2 (human, UniProt Q8TAQ2 1-1214, limits assumed); experiment: as above
T15 construct: also called BAF170; Q8TAQ2_SMRC2

SMARCA4 [9] = target: T16, SMARCA4 (human, UniProt P51532 1-1647, limits assumed); experiment: as above
T16 construct: also called BRG1; BAF190

ARID2 = target: T17, ARID2 (human, UniProt Q68CP9 2-1835); experiment: as above
T17 construct: also called BAF200; Q68CP9_ARID2

[10] = target: T18, SMARCC1 (SWI/SNF related, matrix associated, actin dependent regulator of chromatin subfamily c member 1) (human, UniProt Q92922 1-1105); experiment: HA-GLTSCR1L purification from HEK-293T cells, silver stain and gradient MS
T18 construct: also called BAF155; HA-SMARCC1

- binding result (SMARCA4 [1]): binds
B1: PHF10 (other, human, UniProt Q8WUB8 2-498, looked up)
chain: AAAAGPGAALSPRPCDSDPATPGAQSPKDDNEDNSNDGTQPSKRRRMGSGDSSRSCETSSQDLGFSYYPAENLIEYKWPPDETGEYYMLQEQVSEYLGVTSFKRKYPDLERRDLSHKEKLYLRELNVITETQCTLGLTALRSDEVIDLMIKEYPAKHAEYSVILQEKERQRITDHYKEYSQMQQQNTQKVEASKVPEYIKKAAKKAAEFNSNLNRERMEERRAYFDLQTHVIQVPQGKYKVLPTERTKVSSYPVALIPGQFQEYYKRYSPDELRYLPLNTALYEPPLDPELPALDSDGDSDDGEDGRGDEKRKNKGTSDSSSGNVSEGESPPDSQEDSFQGRQKSKDKAATPRKDGPKRSVLSKSVPGYKPKVIPNAICGICLKGKESNKKGKAESLIHCSQCENSGHPSCLDMTMELVSMIKTYPWQCMECKTCIICGQPHHEEEMMFCDMCDRGYHTFCVGLGAIPSGRWICDCCQRAPPTPRKVGRRGKNSKEG
notes: Endogenous PBAF subunit; numbering on the printed UniProt entry; also called BAF45A

- binding result [2]: binds
B2: BRD7 (Bromodomain-containing protein 7) (other, human, UniProt Q9NPI1 1-651, looked up)
chain: MGKKHKKHKSDKHLYEEYVEKPLKLVLKVGGNEVTELSTGSSGHDSSLFEDKNDHDKHKDRKRKKRKKGEKQIPGEEKGRKRRRVKEDKKKRDRDRVENEAEKDLQCHAPVRLDLPPEKPLTSSLAKQEEVEQTPLQEALNQLMRQLQRKDPSAFFSFPVTDFIAPGYSMIIKHPMDFSTMKEKIKNNDYQSIEELKDNFKLMCTNAMIYNKPETIYYKAAKKLLHSGMKILSQERIQSLKQSIDFMADLQKTRKQKDGTDTSQSGEDGGCWQREREDSGDAEAHAFKSPSKENKKKDKDMLEDKFKSNNLEREQEQLDRIVKESGGKLTRRLVNSQCEFERRKPDGTTTLGLLHPVDPIVGEPGYCPVRLGMTTGRLQSGVNTLQGFKEDKRNKVTPVLYLNYGPYSSYAPHYDSTFANISKDDSDLIYSTYGEDSDLPSDFSIHEFLATCQDYPYVMADSLLDVLTKGGHSRTLQEMEMSLPEDEGHTRTLDTAKEMEITEVEPPGRLDSSTQDRLIALKAVTNFGVPVEVFDSEEAEIFQKKLDETTRLLRELQEAQNERLSTRPPPNMICLLGPSYREMHLAEQVTNNLKELAQQVTPGDIVSTYGVRKAMGISIPSPVMENNFVDLTEDTEEPKKTDVAECGPGGS
notes: Endogenous subunit co-purified in native PBAF complex; The crosslink positions count on Q9NPI1; also called Q9NPI1

- total peptides (SMARCE1): 114 peptides
- unique peptides (SMARCE1): 33 peptides
- total peptides (ARID1A): 321 peptides
- unique peptides (ARID1A): 100 peptides
- total peptides [3]: 8 peptides
- unique peptides [3]: 2 peptides
- total peptides [4]: 3 peptides
- unique peptides [4]: 2 peptides
- total peptides (SS18): 3 peptides
- unique peptides (SS18): 2 peptides
- total peptides [5]: 1 peptides
- unique peptides [5]: 1 peptides
- total peptides [6]: 2 peptides
- unique peptides [6]: 1 peptides
- total peptides (SMARCC1): 403 peptides
- unique peptides (SMARCC1): 88 peptides
- total peptides [7]: 1 peptides
- unique peptides [7]: 1 peptides
- total peptides [8]: 1 peptides
- unique peptides [8]: 1 peptides
- total peptides (ARID1B): 189 peptides
- unique peptides (ARID1B): 75 peptides
- total peptides (SMARCA2): 206 peptides
- unique peptides (SMARCA2): 74 peptides
- total peptides (SMARCC2): 172 peptides
- unique peptides (SMARCC2): 55 peptides
- total peptides (SMARCA4 [9]): 153 peptides
- unique peptides (SMARCA4 [9]): 53 peptides
- total peptides (ARID2): 55 peptides
- unique peptides (ARID2): 41 peptides
B3: HA-SMARCD1 (other, human, UniProt Q96GM5 1-515, looked up)
chain: MAARAGFQSVAPSGGAGASGGAGAAAALGPGGTPGPPVRMGPAPGQGLYRSPMPGAAYPRPGMLPGSRMTPQGPSMGPPGYGGNPSVRPGLAQSGMDQSRKRPAPQQIQQVQQQAVQNRNHNAKKKKMADKILPQRIRELVPESQAYMDLLAFERKLDQTIMRKRLDIQEALKRPIKQKRKLRIFISNTFNPAKSDAEDGEGTVASWELRVEGRLLEDSALSKYDATKQKRKFSSFFKSLVIELDKDLYGPDNHLVEWHRTATTQETDGFQVKRPGDVNVRCTVLLMLDYQPPQFKLDPRLARLLGIHTQTRPVIIQALWQYIKTHKLQDPHEREFVICDKYLQQIFESQRMKFSEIPQRLHALLMPPEPIIINHVISVDPNDQKKTACYDIDVEVDDTLKTQMNSFLLSTASQQEIATLDNKIHETIETINQLKTQREFMLSFARDPQGFINDWLQSQCRDLKTMTDVVGNPEEERRAEFYFQPWAQEAVCRYFYSKVQQRRQELEQALGIRNT
notes: also called BAF60A; Q96GM5_SMRD1; not shown: HA tag

- binding result [10]: binds
B4: GLTSCR1L (BRD4 Interacting Chromatin Remodeling Complex Associated Protein Like) (other, human, UniProt Q6AI39 1-1079, looked up)
chain: MDDDDDSCLLDLIGDPQALNYFLHGPSNKSSNDDLTNAGYSAANSNSIFANSSNADPKSSLKGVSNQLGEGPSDGLPLSSSLQFLEDELESSPLPDLTEDQPFDILQKSLQEANITEQTLAEEAYLDASIGSSQQFAQAQLHPSSSASFTQASNVSNYSGQTLQPIGVTHVPVGASFASNTVGVQHGFMQHVGISVPSQHLSNSSQISGSGQIQLIGSFGNHPSMMTINNLDGSQIILKGSGQQAPSNVSGGLLVHRQTPNGNSLFGNSSSSPVAQPVTVPFNSTNFQTSLPVHNIIIQRGLAPNSNKVPINIQPKPIQMGQQNTYNVNNLGIQQHHVQQGISFASASSPQGSVVGPHMSVNIVNQQNTRKPVTSQAVSSTGGSIVIHSPMGQPHAPQSQFLIPTSLSVSSNSVHHVQTINGQLLQTQPSQLISGQVASEHVMLNRNSSNMLRTNQPYTGPMLNNQNTAVHLVSGQTFAASGSPVIANHASPQLVGGQMPLQQASPTVLHLSPGQSSVSQGRPGFATMPSVTSMSGPSRFPAVSSASTAHPSLGSAVQSGSSGSNFTGDQLTQPNRTPVPVSVSHRLPVSSSKSTSTFSNTPGTGTQQQFFCQAQKKCLNQTSPISAPKTTDGLRQAQIPGLLSTTLPGQDSGSKVISASLGTAQPQQEKVVGSSPGHPAVQVESHSGGQKRPAAKQLTKGAFILQQLQRDQAHTVTPDKSHFRSLSDAVQRLLSYHVCQGSMPTEEDLRKVDNEFETVATQLLKRTQAMLNKYRCLLLEDAMRINPSAEMVMIDRMFNQEERASLSRDKRLALVDPEGFQADFCCSFKLDKAAHETQFGRSDQHGSKASSSLQPPAKAQGRDRAKTGVTEPMNHDQFHLVPNHIVVSAEGNISKKTECLGRALKFDKVGLVQYQSTSEEKASRREPLKASQCSPGPEGHRKTSSRSDHGTESKLSSILADSHLEMTCNNSFQDKSLRNSPKNEVLHTDIMKGSGEPQPDLQLTKSLETTFKNILELKKAGRQPQSDPTVSGSVELDFPNFSPMASQENCLEKFIPDHSEGVVETDSILEAAVNSILEC
notes: also called BICRAL; HA-GLTSCR1L

Source: US20230035235A1 (published 2023)
